# Reference: publication PMC2859858
# Biological target: ProLabel-LEDGF fusion protein (UniProt O75475)
# Assay: chemiluminescent co-IP assay
# Details: 293T cells, 48 h after transfection; parent: est. 4700; read off a plot
# UniProt O75475, sequence (O75475 whole entry, the tested form may be a part): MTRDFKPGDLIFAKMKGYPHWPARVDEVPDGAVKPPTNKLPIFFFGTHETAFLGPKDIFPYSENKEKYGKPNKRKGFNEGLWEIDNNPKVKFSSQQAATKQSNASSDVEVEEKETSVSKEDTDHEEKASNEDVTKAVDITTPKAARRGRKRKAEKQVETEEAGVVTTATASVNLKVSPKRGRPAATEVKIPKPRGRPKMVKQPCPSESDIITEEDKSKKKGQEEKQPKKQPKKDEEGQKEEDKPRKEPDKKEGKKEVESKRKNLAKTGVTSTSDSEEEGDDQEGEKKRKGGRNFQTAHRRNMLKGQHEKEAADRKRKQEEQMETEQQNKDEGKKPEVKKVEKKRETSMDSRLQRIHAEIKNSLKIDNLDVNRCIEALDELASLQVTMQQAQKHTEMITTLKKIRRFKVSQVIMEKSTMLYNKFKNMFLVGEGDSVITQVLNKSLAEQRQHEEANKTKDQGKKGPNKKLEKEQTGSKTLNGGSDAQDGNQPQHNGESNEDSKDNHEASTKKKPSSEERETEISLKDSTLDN
row,Substance,response
1,AcGFP1-IN wild type E170A; H171A,50 RLU
2,AcGFP1-IN wild type E170A; K173A,1300 RLU
3,AcGFP1-IN wild type H171A; K173A,250 RLU
4,AcGFP1-IN wild type H171A; L172A,130 RLU
